Assay results from the Immune Epitope Database (IEDB).
pIC50, pKd: −log10 of the molar value.

Key:
HLA-A*03:01 [1] = assay: IEDB peptide-MHC binding, purified MHC/competitive/fluorescence; filed as Kd, often an IC50 or EC50 that approximates it; ≥ and ≤ were set here for values at or beyond the usual limits of such assays
HLA-A*68:02 = assay: IEDB peptide-MHC binding, purified MHC/competitive/radioactivity; filed as Kd, often an IC50 or EC50 that approximates it; ≥ and ≤ were set here for values at or beyond the usual limits of such assays
HLA-A*24:02 = assay: IEDB peptide-MHC binding, purified MHC/competitive/fluorescence; ≥ and ≤ were set here for values at or beyond the usual limits of such assays
HLA-A*02:01 [2] = assay: as above
HLA-B*44:02 [3] = assay: IEDB peptide-MHC binding, purified MHC/direct/fluorescence; filed as Kd, often an IC50 or EC50 that approximates it; ≥ and ≤ were set here for values at or beyond the usual limits of such assays
HLA-A*01:01 = assay: as above
HLA-A*69:01 = assay: as above
HLA-B*40:01 [4] = assay: as above
HLA-B*08:01 = assay: as above
HLA-A*11:01 = assay: as above
HLA-A*31:01 = assay: as above
HLA-A*03:01 [5] = assay: as above
HLA-B*58:01 = assay: as above
HLA-B*15:01 = assay: as above
HLA-B*27:05 = assay: as above
HLA-A*02:01 [6] = assay: as above
HLA-B*07:02 = assay: as above
HLA-A*26:01 = assay: as above
HLA-B*44:02 [7] = assay: IEDB peptide-MHC binding, purified MHC/competitive/radioactivity; filed as Kd, often an IC50 or EC50 that approximates it; ≥ and ≤ were set here for values at or beyond the usual limits of such assays
HLA-B*40:01 [8] = assay: as above
HLA-B*40:02 = assay: as above
HLA-B*45:01 = assay: as above
HLA-B*18:01 = assay: as above
HLA-B*44:03 = assay: as above
HLA-A*24:03 = assay: IEDB peptide-MHC binding, purified MHC/direct/fluorescence; filed as Kd, often an IC50 or EC50 that approximates it; ≥ and ≤ were set here for values at or beyond the usual limits of such assays; conditions: source organism: Vibrio cholerae
HLA-A*02:12 = assay: as above; conditions: source organism: Ravn virus - Ravn, Kenya, 1987
[9] = source organism: Zaire ebolavirus
[10] = source organism: Giardia lamblia ATCC 50803
[11] = source organism: Mammarenavirus machupoense
[12] = source organism: SARS coronavirus Tor2
[13] = source organism: Vibrio cholerae
[14] = source organism: Mammarenavirus guanaritoense
[15] = source organism: Vaccinia virus
[16] = source organism: Sudan ebolavirus
[17] = source organism: Ebola virus - Mayinga, Zaire, 1976
[18] = source organism: Mammarenavirus brazilense

## QLAFFVAGH
HLA-A*03:01 [1]; source organism: Yersinia pestis Antiqua
  pKd: 6.70

## QVMLLVLCV
HLA-A*68:02; source organism: Dengue virus 2 Peru/IQT2913/1996
  pKd: 6.84

## KQLQQYAES
HLA-A*24:02; [9]
  pIC50: 4.68
HLA-A*02:01 [2]; [9]
  pIC50: ≤ 3.73

## KLADMSIYC
HLA-B*44:02 [3]; [10]
  pKd: ≤ 4.70
HLA-A*01:01; [10]
  pKd: ≤ 4.70
HLA-A*69:01; [10]
  pKd: ≤ 4.70
HLA-B*40:01 [4]; [10]
  pKd: ≤ 4.70
HLA-B*08:01; [10]
  pKd: ≤ 4.70
HLA-A*11:01; [10]
  pKd: ≤ 4.70
HLA-A*31:01; [10]
  pKd: ≤ 4.70
HLA-A*03:01 [5]; [10]
  pKd: 5.38
HLA-B*58:01; [10]
  pKd: ≤ 4.70
HLA-B*15:01; [10]
  pKd: 5.40
HLA-B*27:05; [10]
  pKd: ≤ 4.70
HLA-A*02:01 [6]; [10]
  pKd: 7.37
HLA-B*07:02; [10]
  pKd: ≤ 4.70
HLA-A*26:01; [10]
  pKd: ≤ 4.70

## RLQQELDDL
HLA-A*68:02; source organism: Homo sapiens
  pKd: ≤ 3.90

## EEVLDVCPLG
HLA-B*44:02 [7]; [11]
  pKd: ≤ 4.15
HLA-B*40:01 [8]; [11]
  pKd: 4.85
HLA-B*40:02; [11]
  pKd: 5.01
HLA-B*45:01; [11]
  pKd: 5.35
HLA-B*18:01; [11]
  pKd: 5.32
HLA-B*44:03; [11]
  pKd: ≤ 4.29

## TLYDRYLIK
HLA-A*03:01 [1]; source organism: Campylobacter lari RM2100
  pKd: 7.96

## EEILGTVSW
HLA-B*44:02 [7]; [12]
  pKd: 8.50
HLA-B*40:01 [8]; [12]
  pKd: 5.51
HLA-B*40:02; [12]
  pKd: 6.42
HLA-B*45:01; [12]
  pKd: 5.81
HLA-B*18:01; [12]
  pKd: 7.11
HLA-B*44:03; [12]
  pKd: 8.59

## RYDYANLCQ
HLA-B*44:02 [3]; [13]
  pKd: ≤ 4.70
HLA-A*01:01; [13]
  pKd: ≤ 4.70
HLA-A*69:01; [13]
  pKd: ≤ 4.70
HLA-B*40:01 [4]; [13]
  pKd: ≤ 4.70
HLA-B*08:01; [13]
  pKd: ≤ 4.70
HLA-A*11:01; [13]
  pKd: ≤ 4.70
HLA-A*31:01; [13]
  pKd: ≤ 4.70
HLA-A*24:03
  pKd: ≤ 4.70
HLA-A*03:01 [5]; [13]
  pKd: ≤ 4.70
HLA-B*58:01; [13]
  pKd: ≤ 4.70
HLA-B*15:01; [13]
  pKd: ≤ 4.70
HLA-B*27:05; [13]
  pKd: ≤ 4.70
HLA-A*02:01 [6]; [13]
  pKd: ≤ 4.70
HLA-B*07:02; [13]
  pKd: ≤ 4.70
HLA-A*26:01; [13]
  pKd: ≤ 4.70

## AEFTFQLNL
HLA-B*44:02 [7]; [14]
  pKd: 7.22
HLA-B*40:01 [8]; [14]
  pKd: 7.18
HLA-B*40:02; [14]
  pKd: 9.02
HLA-B*45:01; [14]
  pKd: 6.68
HLA-B*18:01; [14]
  pKd: 5.23
HLA-B*44:03; [14]
  pKd: 7.29

## SYRNKPSIA
HLA-A*24:02; [15]
  pIC50: 4.36

## KISGSFSPH
HLA-A*03:01 [1]; source organism: Cryptosporidium parvum Iowa II
  pKd: 7.43

## KVYTMDGEY
HLA-A*03:01 [1]; source organism: West Nile virus
  pKd: 7.42

## MVAWRVTMH
HLA-A*03:01 [1]; source organism: Toxoplasma gondii
  pKd: 7.32

## PTLTTPENI
HLA-A*24:02; [16]
  pIC50: 4.27
HLA-A*02:01 [2]; [16]
  pIC50: ≤ 3.57

## IISDLSIFI
HLA-A*69:01; [17]
  pKd: 7.49
HLA-A*02:12
  pKd: 7.16
HLA-A*02:01 [6]; [17]
  pKd: 8.52

## LTVAWRTATL
HLA-A*68:02; source organism: Dengue virus 3 Martinique/1243/1999
  pKd: 7.49

## SEFDRDAAM
HLA-B*44:02 [7]; [12]
  pKd: 6.13
HLA-B*40:01 [8]; [12]
  pKd: 6.68
HLA-B*40:02; [12]
  pKd: 6.00
HLA-B*45:01; [12]
  pKd: 4.74
HLA-B*18:01; [12]
  pKd: 5.60
HLA-B*44:03; [12]
  pKd: 6.27

## KEPGVSRELL
HLA-B*44:02 [7]; [18]
  pKd: ≤ 4.15
HLA-B*40:01 [8]; [18]
  pKd: 5.88
HLA-B*40:02; [18]
  pKd: 5.97
HLA-B*45:01; [18]
  pKd: ≤ 4.15
HLA-B*18:01; [18]
  pKd: ≤ 4.15
HLA-B*44:03; [18]
  pKd: ≤ 4.15

## DKLVDPINY
HLA-B*44:02 [7]; source organism: Variola virus
  pKd: ≤ 4.11
HLA-B*40:01 [8]; source organism: Variola virus
  pKd: 4.81
HLA-B*40:02; source organism: Variola virus
  pKd: ≤ 4.11
HLA-B*45:01; source organism: Variola virus
  pKd: ≤ 4.11
HLA-B*18:01; source organism: Variola virus
  pKd: ≤ 4.11
HLA-B*44:03; source organism: Variola virus
  pKd: ≤ 4.11

## KYNTPCPNC
HLA-A*24:02; [15]
  pIC50: 4.45

## PEANMDQESF
HLA-B*44:02 [7]; [12]
  pKd: 5.12
HLA-B*40:01 [8]; [12]
  pKd: 5.38
HLA-B*40:02; [12]
  pKd: 5.00
HLA-B*45:01; [12]
  pKd: ≤ 4.59
HLA-B*18:01; [12]
  pKd: ≤ 4.27
HLA-B*44:03; [12]
  pKd: 4.97

## IDYRHYSASF
HLA-B*44:02 [7]; [12]
  pKd: 5.23
HLA-B*40:01 [8]; [12]
  pKd: ≤ 4.35
HLA-B*40:02; [12]
  pKd: 5.57
HLA-B*45:01; [12]
  pKd: 6.01
HLA-B*18:01; [12]
  pKd: ≤ 4.50
HLA-B*44:03; [12]
  pKd: ≤ 4.44
